This assay addresses BSA (UniProt P02769 25-607). The experiment in a line: ELISA, coated BSA, anti-human IgG HRP. The method, then: ELISAs were performed to identify antigen-specific binding capacity of clones converted to IgG EGFRvIII peptide, […] peptide and BSA were coated on […] 96 well plates at 37° C. for 2 hours. Thereafter, after blocking the uncoated portion with 3% skim milk/0.05% PBST, 1 μg/ml IgG was added to the plate and reacted at 37° C. for 1 hour. Anti-human IgG HRP (pierce, USA) was diluted in 1:3000 and reacted for 1 hour. Next, the TMB substrate (BD, USA) was treated for 10 minutes for color development, and the reaction was stopped by treating with 2N H2SO4. As to the color developed ELISA, the absorbance was measured at 450 nm-650 nm using a Sunrise ELISA reader (TECAN, Switzerland).
For orientation: ELISA stands for enzyme-linked immunosorbent assay.

Chain of BSA (P02769 25-607 limits assumed): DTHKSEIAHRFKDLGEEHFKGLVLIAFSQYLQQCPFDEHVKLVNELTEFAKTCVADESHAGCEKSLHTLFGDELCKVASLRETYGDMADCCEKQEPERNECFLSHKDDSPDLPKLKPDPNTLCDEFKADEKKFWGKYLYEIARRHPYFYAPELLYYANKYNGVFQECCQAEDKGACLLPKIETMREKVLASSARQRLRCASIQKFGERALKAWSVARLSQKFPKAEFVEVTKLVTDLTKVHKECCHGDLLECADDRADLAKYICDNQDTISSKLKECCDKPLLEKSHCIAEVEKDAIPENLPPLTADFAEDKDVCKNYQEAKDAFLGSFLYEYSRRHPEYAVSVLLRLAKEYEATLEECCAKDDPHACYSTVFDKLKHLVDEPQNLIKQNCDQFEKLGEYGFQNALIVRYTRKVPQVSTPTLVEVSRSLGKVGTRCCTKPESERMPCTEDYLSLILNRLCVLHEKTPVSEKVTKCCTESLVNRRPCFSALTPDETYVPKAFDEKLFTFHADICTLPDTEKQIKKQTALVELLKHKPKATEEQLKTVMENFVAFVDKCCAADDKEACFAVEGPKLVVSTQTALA

B1: PA430 human IgG (antibody, V domains shown)
VH: QMQLVESGGGVVQPGKSLRLSCAASGFTFSYHAMHWVRQAPGKGLEWLAAMSHDGTETSYADSVKGRITISRDNSKSALYLQMNSLRAEDTAVYYCTAEGLRSNGGAFETWGRGTMITVSS
VL: SYELTQPPSVSVAPGQTARITCSGDVLPKHYAYWYQQKPGQAPVLVIYKDSERPSGIPERFTGSSSGTKVTLTISGVRAEDEADYYCQSVDSSDTSVVFGGGTKLTVLG
notes: Converted from the phage antibody to whole human IgG with vectors pIgGHD-6A6Hvy and pIgGLD-6A6Lgt and expressed in HEK293T
As for B1, the binding result is recorded as “no binding (tested: 1 µg/ml IgG)”.

B2: PD52 human IgG (antibody, V domains shown)
VH: QMQLVQSGGGVVQPGGSLRLSCVGSGFSFDDYAMHWVRQAPGKGLEWVSGISWNSGAIGYADSVKGRFTVSRDNSKNSLYLQMNSLRAEDTAVYYCATASRGLGDAFDIWGQGTMVTVSS
VL: SYELTQPPSVSVSPGQTARITCSGDVLPKHYAYWYQQKPGQAPVLVIYKDTERPSGIPERFSGSSSGTTVTLTISGVQAEDEADYYCQSVDNSDTSVVFGGGTKLTVLG
notes: Whole human IgG
For B2, the binding result is given as “no binding (tested: 1 µg/ml IgG)”.

B3: PD10 human IgG (antibody, V domains shown)
VH: QVQLVESGGGLVQPGGSLRLSCAASGFTFDEHAMHWVRQAPGKGLQWVSGINWNSGKTGYADSVKGRFTISRDNSKNSLYLQMNSLRAEDTAVYYCTRPGEDTGGGFDIWGQGTMITVSS
VL: NFMLTQPASVSGSPGQSITISCTGSSSDVGGYNYVSWYQQHPGKAPQLIIYDVTKRPSGVSNRFSGSKSGNSASLTISGLQAEDEADYYCSSYSSSTFYVFGTGTKVTVLG
notes: Whole human IgG
Turning to B3, the binding result is listed as “no binding (tested: 1 µg/ml IgG)”.

B4: PD27 human IgG (antibody, V domains shown)
VH: QVQLVESGGGLVQPGGSLRLSCAASGFTFDEHAMHWVRQAPGKGLQWVSGINWNSGKTGYADSVKGRFTISRDNSKNSLYLQMNSLRAEDTAVYYCTRPGEDTGGGFDIWGQGTMITVSS
VL: SYELTQPLSVSVSPGQTARITCSGDVLADHYSYWYQQKPGQAPVLVMYKDSERPSGIPERFSGSSSGTTVTLTISGVQAEDEADYYCQSVDSSDTSVVFGGGTKLTVLG
notes: Whole human IgG
As to B4, the binding result is “no binding (tested: 1 µg/ml IgG)”.

These data come from patent publication US20170327585A1 (PHARMABCINE, published 2017).
